Where “and” joins values, the source holds several entries; their conditions need not be identical. Identical values can stand only once. Each block holds one molecule with its values, some of them ahead of it. Where no end group is shown, it is not given here.
Experiments:
AMPK = AMPK protein kinase assay: phosphorylation of synthetic peptide substrates by partially purified enzyme (DE-52 step); assay type: biochemical, porcine; details: for rate of phosphorylation relative to the SAMS peptide: partially purified enzyme (purified to the DE-52 step), % of the rate of the SAMS peptide; for Km: peptide as substrate of AMPK, read-out: apparent Km as substrate for the AMPK
Excerpt: A series of synthetic peptides including analogues of proteins […] to be substrates for the AMPK were screened with partially purified enzyme (purified to the DE-52 step). These included the myosin light chains, ADR1, glycogen synthase and phospholemman. The phospholemman peptides tested were poor substrates and not investigated further. The glycogen synthase peptide, PLSRTLSVAAKK (SEQ ID NO: 46) was phosphorylated in an AMP-dependent manner at approximately 40% of the rate of the SAMS peptide, however, this peptide is an excellent substrate for a number of protein kinases, including protein kinase C and calmodulin dependent protein kinase II (Kemp, B. E. and Pearson, R. B. (1991) in Protein Phosphorylation, Hunter, T and Sefton, B. M. (eds) Methods in Enzymology, 200, 121-134). The myosin light chain peptides tested were phosphorylated with rates approximately 15% of the SAMS peptide.
The AMPK was assayed in accordance with procedures described by Davies et al. (1989) Eur. J. Biochem. 186, 123-128 using the SAMS peptide substrate, HMRSAMSGLHLVKRR-amide (SEQ ID NO: 49). The enzyme was diluted in diluting buffer (20 mM HEPES pH 7.0, 0.1% (v/v) Triton X-100) prior to assay and the reactions were initiated by adding […] diluted enzyme to the reaction mixture containing peptide substrate. The reactions were stopped by withdrawing […] aliquots and applying to P81 papers in accordance with procedures described by Pearson, R. B., Mitchelhill, K. I., and Kemp, B. E. (1993) in Protein Phosphorylation: A Practical Approach, Hardie, G. D. (ed) Oxford University Press, pp 265-291.

AMPK α1 = assay type: biochemical, rat; details: alpha1 immune precipitates, 200 µM
AMPK α2 = assay type: biochemical, rat; details: alpha2 immune precipitates
SAMS peptide [1] = target: SAMS peptide
[2] = target: ADR1(222-234)P229 peptide
[3] = target: ADR1(225-234) peptide (Saccharomyces cerevisiae (strain ATCC 204508 / S288c) (Baker's yeast)) (UniProt P07248)
SAMS peptide [4] = target: SAMS peptide; remark: listed apart in the source
[5] = target: glycogen synthase peptide
[6] = target: myosin light chain peptides
SAMS peptide [7] = details: scale: % of the SAMS peptide phosphotransferase activity of rat liver

rate of phosphorylation relative to the SAMS peptide (AMPK): approximately 50%
Molecule: ADR1(225-234): synthetic ADR1 peptide screened as AMPK substrate (LTRRASFSAQ)

activation by 5'-AMP (AMPK α1): 2-3 fold | activation by 5'-AMP (AMPK α2): 3-4 fold
Molecule: Nc1ncnc2c1ncn2[C@@H]1O[C@H](COP(=O)(O)O)[C@@H](O)[C@H]1O [5'-AMP]

apparent specific activity (SAMS peptide [1]): > 20 fold lower | apparent specific activity (acetyl CoA carboxylase): > 20 fold lower
Molecule: AMPK α2 isoenzyme of rat liver (α2 with β and γ subunits), from the unbound fraction of the peptide substrate affinity column (from UniProt Q09137)

Km (AMPK): 33 µM
Molecule: HMRSAMSGLHLVKRR-amide (HMRSAMSGLHLVKRR-NH2) [SAMS peptide]

apparent Km of phosphorylation [2]: 3 µM | rate of phosphorylation (% of the SAMS peptide) [3]: 50 | apparent Km of phosphorylation (SAMS peptide [4]): 33 µM | rate of phosphorylation (% of the rate of the SAMS peptide) [5]: 40 | rate of phosphorylation (% of the SAMS peptide) [6]: 15
Molecule: AMPK, partially purified enzyme (purified to the DE-52 step)

SAMS peptide phosphotransferase activity (SAMS peptide [7]): > 94
Molecule: AMPK α1 isoform holoenzyme purified from liver by peptide substrate affinity chromatography (63 kDa catalytic subunit, 40 kDa and 38 kDa subunits) (from UniProt P54645)

rate of phosphorylation relative to the SAMS peptide (AMPK): approximately 40%
Molecule: PLSRTLSVAAKK [glycogen synthase peptide]

rate of phosphorylation relative to the SAMS peptide (AMPK): approximately 50% | Km (AMPK): ~3 µM and 3 µM
Molecule: LKKLTLRASFSAQ (not fully specified) [ADR1(222-234)^P229]
